From doi:10.1101/2024.11.26.625551 (bioRxiv, 2024)
Values belong to the binder of their own block, whether it stands above or below them.

What was measured:
[1] = biological target: GST-tagged mouse Cavin1 HR1 domain (Mus musculus, UniProt O54724); assay: pull-down
[2] = biological target: zebrafish Cavin4b HR1 domain (Danio rerio, UniProt A0A8M1N3J3); assay: ITC
[3] = biological target: mouse Cavin1 HR1 N-terminal fragment mC1-HR1(45-103) (Mus musculus, UniProt O54724); assay: ITC
[4] = biological target: His-MBP full-length mouse Cavin1 (Mus musculus (Mouse)., UniProt O54724); assay: ITC
His-MBP full-length mouse Cavin1, sequence (O54724 whole entry, the tested form may be a part): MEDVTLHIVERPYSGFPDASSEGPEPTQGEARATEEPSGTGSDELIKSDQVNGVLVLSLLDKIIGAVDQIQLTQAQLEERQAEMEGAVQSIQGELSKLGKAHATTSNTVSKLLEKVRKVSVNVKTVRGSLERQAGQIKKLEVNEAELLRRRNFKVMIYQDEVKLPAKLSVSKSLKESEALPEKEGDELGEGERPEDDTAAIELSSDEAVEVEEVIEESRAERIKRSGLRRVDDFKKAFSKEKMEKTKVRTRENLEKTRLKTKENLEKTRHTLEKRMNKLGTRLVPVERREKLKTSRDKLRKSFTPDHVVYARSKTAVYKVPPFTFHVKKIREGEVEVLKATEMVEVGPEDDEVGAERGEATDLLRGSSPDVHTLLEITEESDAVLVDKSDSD

[5] = biological target: mouse Cavin1 HR1 domain (His-Ub construct) (Mus musculus (Mouse)., UniProt O54724); assay: ITC
[6] = biological target: zebrafish Cavin4a HR1 domain (Danio rerio, UniProt A1L260); assay: ITC
zebrafish Cavin4a HR1 domain, sequence (A1L260 whole entry, looked up, the tested form may be a part): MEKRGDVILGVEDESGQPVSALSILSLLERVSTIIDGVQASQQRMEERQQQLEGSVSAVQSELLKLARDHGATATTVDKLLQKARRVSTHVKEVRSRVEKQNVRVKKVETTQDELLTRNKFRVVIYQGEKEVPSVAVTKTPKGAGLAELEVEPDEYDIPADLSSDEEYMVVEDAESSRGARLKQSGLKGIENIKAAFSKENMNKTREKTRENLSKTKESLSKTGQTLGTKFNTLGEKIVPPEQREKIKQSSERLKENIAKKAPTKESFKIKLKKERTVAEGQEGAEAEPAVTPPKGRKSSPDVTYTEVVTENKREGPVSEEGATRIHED

endogenous Cavin1 (HeLa) = endogenous Cavin1 (HeLa) (Homo sapiens (HeLa), UniProt Q6NZI2); assay: co-IP
endogenous Cavin1 (HeLa), sequence (Q6NZI2 whole entry): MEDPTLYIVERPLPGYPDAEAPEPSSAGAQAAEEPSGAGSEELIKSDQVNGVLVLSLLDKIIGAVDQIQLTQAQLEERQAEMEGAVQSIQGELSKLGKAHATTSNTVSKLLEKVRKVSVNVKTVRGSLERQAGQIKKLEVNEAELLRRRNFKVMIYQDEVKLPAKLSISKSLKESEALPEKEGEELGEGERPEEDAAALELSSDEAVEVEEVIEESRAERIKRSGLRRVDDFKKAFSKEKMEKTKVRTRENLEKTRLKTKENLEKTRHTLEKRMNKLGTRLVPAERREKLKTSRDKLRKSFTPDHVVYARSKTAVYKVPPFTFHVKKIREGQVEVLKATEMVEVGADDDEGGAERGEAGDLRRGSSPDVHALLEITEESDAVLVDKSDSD

endogenous CAV1 (HeLa) = endogenous CAV1 (HeLa) (Homo sapiens (HeLa), UniProt Q03135); assay: co-IP
endogenous CAV1 (HeLa), sequence (Q03135 whole entry): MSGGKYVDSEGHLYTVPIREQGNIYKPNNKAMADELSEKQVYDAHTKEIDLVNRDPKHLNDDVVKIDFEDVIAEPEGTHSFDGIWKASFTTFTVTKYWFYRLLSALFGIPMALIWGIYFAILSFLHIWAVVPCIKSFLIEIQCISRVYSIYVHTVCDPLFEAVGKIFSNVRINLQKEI

crystal structure = biological target: the molecule itself; assay: crystal structure

- binding result [1]: binds
- binding result [2]: no binding
- binding result [3]: binds
- binding result [4]: binds
- binding result [5]: binds
- binding result [6]: no binding
B1: nanobody NbA12 (VHH)
VHH: QVQLQESGGGLVQAGGSLRLSCAASGFTFDDYAIGWFRQAPGKEREGVSCITSSDGSTYYADSVKGRFTISSDNAKNTVYLQMNSLKPEDTAVYYCAAESWPPLCHYSGMDYWGKGTQVTVSS

- binding result (endogenous Cavin1 (HeLa)): binds
- binding result (endogenous CAV1 (HeLa)): binds
B2: NbB7-GFP (VHH)
VHH: QVQLQESGGGLVQAGGSLRLSCAVSGIRVNVNAMYWYRQAPGKQRELVAIITTFGSTNYADSAKGRFTISRDNTKNTVYLQMDNLKPEDTAVYYCNAPQFTDRYWGQGTQVTVSS

- binding result [2]: no binding
- Kd [5]: 520 nM
B3: nanobody NbB7 (VHH)
VHH: QVQLQESGGGLVQAGGSLRLSCAVSGIRVNVNAMYWYRQAPGKQRELVAIITTFGSTNYADSAKGRFTISRDNTKNTVYLQMDNLKPEDTAVYYCNAPQFTDRYWGQGTQVTVSS

B4: mouse Cavin1 HR1 domain (as crystallised with NbB7) (domain or fragment, UniProt O54724 45-155, looked up)
chain: LIKSDQVNGVLVLSLLDKIIGAVDQIQLTQAQLEERQAEMEGAVQSIQGELSKLGKAHATTSNTVSKLLEKVRKVSVNVKTVRGSLERQAGQIKKLEVNEAELLRRRNFKV
- stoichiometry N (crystal structure): 3
